# Reference: patent CN114075552A (MEDX TRANSLATIONAL MEDICINE CO LTD, dated 2022)
# T1: 真核表达的人FGL1重组蛋白 (human FGL1 Leu23-Ile312 with C-terminal 6xHis, expressed in 293F cells) (human, UniProt Q08830 23-312)
# T1 construct: also called 真核表达的FGL1蛋白; 真核表达的人FGL1蛋白
# T1 sequence: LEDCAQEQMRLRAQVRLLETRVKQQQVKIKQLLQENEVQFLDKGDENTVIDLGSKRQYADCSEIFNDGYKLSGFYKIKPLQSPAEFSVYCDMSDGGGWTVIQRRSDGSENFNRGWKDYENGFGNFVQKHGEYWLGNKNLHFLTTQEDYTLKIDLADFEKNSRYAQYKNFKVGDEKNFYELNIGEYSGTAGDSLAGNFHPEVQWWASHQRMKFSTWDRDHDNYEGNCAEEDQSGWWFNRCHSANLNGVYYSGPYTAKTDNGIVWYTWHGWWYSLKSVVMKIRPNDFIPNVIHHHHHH
# T2: 原核表达的TF-FGL1融合蛋白 (human FGL1 Leu23-Ile312 fused to trigger factor, pCold TF, expressed in E. coli BL21(DE3)) (human)
# T2 construct: also called 原核表达的FGL1蛋白; TF-FGL1蛋白
# T2 chain: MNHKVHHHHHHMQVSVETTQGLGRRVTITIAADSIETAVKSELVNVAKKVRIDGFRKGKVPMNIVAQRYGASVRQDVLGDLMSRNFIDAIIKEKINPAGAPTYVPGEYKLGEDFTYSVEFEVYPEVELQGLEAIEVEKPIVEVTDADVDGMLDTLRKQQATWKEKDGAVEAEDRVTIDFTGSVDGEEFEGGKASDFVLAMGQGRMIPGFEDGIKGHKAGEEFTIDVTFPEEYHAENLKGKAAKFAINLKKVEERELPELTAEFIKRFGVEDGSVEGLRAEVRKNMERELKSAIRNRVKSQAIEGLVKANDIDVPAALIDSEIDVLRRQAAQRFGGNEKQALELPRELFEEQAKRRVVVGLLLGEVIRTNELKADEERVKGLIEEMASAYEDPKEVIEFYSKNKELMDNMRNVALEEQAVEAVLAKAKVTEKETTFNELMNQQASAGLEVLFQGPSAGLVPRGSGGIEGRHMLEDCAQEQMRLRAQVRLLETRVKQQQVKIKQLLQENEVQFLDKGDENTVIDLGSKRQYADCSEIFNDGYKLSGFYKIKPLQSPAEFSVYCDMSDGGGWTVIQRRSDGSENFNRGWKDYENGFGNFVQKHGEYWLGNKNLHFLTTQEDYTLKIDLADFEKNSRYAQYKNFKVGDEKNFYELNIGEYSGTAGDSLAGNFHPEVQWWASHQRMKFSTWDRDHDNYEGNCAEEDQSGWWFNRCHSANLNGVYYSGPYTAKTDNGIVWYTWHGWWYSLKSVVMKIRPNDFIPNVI
# Key:
# [1] = biological target: T1, 真核表达的人FGL1重组蛋白 (human FGL1 Leu23-Ile312 …); assay: indirect ELISA screen, hybridoma supernatant on coated human FGL1 recombinant protein (0.5 µg/mL)
# [2] = biological target: T2, 原核表达的TF-FGL1融合蛋白 (human FGL1 …); assay: indirect ELISA, antigen coated at 0.5 µg/mL, purified antibody 0.5 µg/mL
# [3] = biological target: T1, 真核表达的人FGL1重组蛋白 (human FGL1 Leu23-Ile312 …); assay: as above
binding result [1],binding result [2],binding result [3],Binder
binds,binds,,"克隆号为MJ9-1的杂交瘤细胞(CGMCC No.23015)分泌的抗FGL1单克隆抗体 (antibody, mouse IgG1, kappa, V domains shown, also called MJ9-1分泌的单克隆抗体; 第一单克隆抗体) VH: EVQLVESGGGLVKPGGSLKLSCAASGFTFSDGYMYWVRQTPEKRLEWVATISDGGSGTYYPDSVKGRFTISRDNAKNNLYLQMSSLKSEDTAMYYCARAATVTRWFAYWGQGTLVTVSA VL: DIQMNQSPSSLSASLGDTITITCHASYNINVWLTWYQQKPGNIPKLLIYKASKLHTGVPSRFSGSGSGTGFTLTISSLQPEDIATYYCQQGQSYPLTFGGGTKLEIKR"
,binds,binds,"克隆号为MJ9-4的杂交瘤细胞(CGMCC No.23016)分泌的抗FGL1单克隆抗体 (antibody, mouse IgG1, kappa, V domains shown, also called MJ9-4分泌的单克隆抗体; 第二单克隆抗体) VH: EVKLQQSGAELAKPGASVKMSCKASGYIFTGGWMHWVKQRPGQGLEWIGYINPSTDGTDYNQKFEDKATLTADKSSSTAYMQLSSLTSEDSAVYYCAREGYYGSSPYFDYWGQGTTLTVSS VL: DIVITQTPATLSVTPGDSVSLSCRASQSVSNNLHWYQQKSHESPRLLIKYVSQSISGIPSRFSGSGSGTDFTLSINSVETEDFGMYFCQQSNSWPLYTFGGGTKLEIKR"
